Assays:
p53-U = molecular target: T1, p53-U (Homo sapiens, UniProt P04637+P63279); assay: Trans-SUMOylation by p53-U; format: cell-based; settings: western blot
T1 construct: expressed in transfected cells; host or cells: HEK293

U-CDC37 = molecular target: T2, U-CDC37 (Homo sapiens, UniProt P63279+Q16543); assay: Trans-SUMOylation by U-CDC37; format: cell-based; design: key: (++), strong TransSUMOylation; (+), TransSUMOylation; (+/−) weak TransSUMOylation; (−) no detectable TransSUMOylation; settings: protein 2 construct coexpressed with U-CDC37 and EGFP-SUMO1 in HEK293; western blot; Table 1
T2 construct: expressed in transfected cells; host or cells: HEK293
T2 sequence (P63279+Q16543 fused): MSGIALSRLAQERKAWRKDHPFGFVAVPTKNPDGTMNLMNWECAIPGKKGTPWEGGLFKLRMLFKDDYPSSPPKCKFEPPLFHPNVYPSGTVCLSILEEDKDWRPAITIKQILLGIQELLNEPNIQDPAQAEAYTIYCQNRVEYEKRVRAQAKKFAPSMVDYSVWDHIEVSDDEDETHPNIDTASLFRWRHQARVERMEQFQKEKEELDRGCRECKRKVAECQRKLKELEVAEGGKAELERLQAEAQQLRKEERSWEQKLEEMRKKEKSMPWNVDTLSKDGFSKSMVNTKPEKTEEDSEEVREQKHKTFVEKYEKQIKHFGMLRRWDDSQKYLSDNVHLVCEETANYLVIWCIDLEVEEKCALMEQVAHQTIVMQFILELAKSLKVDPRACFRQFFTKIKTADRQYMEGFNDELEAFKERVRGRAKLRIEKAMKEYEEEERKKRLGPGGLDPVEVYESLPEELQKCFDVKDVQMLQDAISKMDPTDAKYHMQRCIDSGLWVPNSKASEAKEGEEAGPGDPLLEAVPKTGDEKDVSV
Text: (§1) To identify new SUMOylation substrates and to study the function of SUMOylation the Ubc9/substrate dimerisation-dependent SUMOylation system (USDDS) was developed which consists of fusions of the SUMOylation substrate and of the SUMO-conjugating enzyme Ubc9 to the chemically activatable heterodimerisation domains FKBP and FRB, respectively, as shown in FIG. 2. When the substrate protein fused to FKBP is coexpressed with Ubc9-FRB, treatment of HEK293 cells with the rapamycin-related dimerizer AP21967 induces SUMOylation of the substrate protein fused to FKBP at its specific SUMOylation site. […] Dependent on an EcoRl site in the coding sequence, seven C-terminal amino acids of the human STAT1a in the STAT1-FKBP/FRB fusion proteins are missing. For the SUMOylation analysis HEK293 (human embryonic kidney cells) cells have been used. HEK293 cells were cultured in Dulbecco's modified Eagle's medium with high glucose, complemented with 10% fetal calf serum, 2 mM L-glutamine, 100 U/ml penicillin and […] streptomycin. […]
(§2) As shown above, the SUMOylation of a protein of interest can be induced by the heterodimerisation with a binding protein fused to Ubc9. […] Therefore the protein pairs were coexpressed with EGFP-SUMO1 in HEK293 cells and after 24h the transfectants were lysed and the protein extracts were analyzed in western blots. […]

Ubc9-FKBP = molecular target: T3, Ubc9-FKBP (Homo sapiens, UniProt P42345+P63279); assay: USDDS specificity for SUMOylation sites (K-to-R mutants), western blot; format: cell-based; settings: HEK293, coexpressed with Ubc9-FKBP and EGFP-SUMO1, stimulated with AP21967 1 μM
T3 construct: expressed in transfected cells; host or cells: HEK293
T3 sequence (P63279 with tags, fused parts or gaps): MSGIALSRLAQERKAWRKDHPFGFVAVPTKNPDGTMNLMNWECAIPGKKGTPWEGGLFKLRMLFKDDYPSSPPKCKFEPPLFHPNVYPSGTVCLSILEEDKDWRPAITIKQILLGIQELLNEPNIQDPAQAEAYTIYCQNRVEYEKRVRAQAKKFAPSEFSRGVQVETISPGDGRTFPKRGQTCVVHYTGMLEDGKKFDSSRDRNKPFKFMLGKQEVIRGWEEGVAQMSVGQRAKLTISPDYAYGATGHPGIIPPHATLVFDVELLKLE
T3 sequence (P42345 2021-2113 limits assumed): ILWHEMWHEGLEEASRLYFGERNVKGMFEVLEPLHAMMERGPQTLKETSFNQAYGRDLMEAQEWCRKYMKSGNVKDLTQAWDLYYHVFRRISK

U-p38α = molecular target: T4, U-p38α (Homo sapiens, UniProt P63279+Q16539); assay: Trans-SUMOylation by U-p38α; format: cell-based; settings: protein 2 construct coexpressed with U-p38α and EGFP-SUMO1 in HEK293; western blot; Table 2
T4 construct: expressed in transfected cells; host or cells: HEK293
T4 sequence (P63279+Q16539 fused): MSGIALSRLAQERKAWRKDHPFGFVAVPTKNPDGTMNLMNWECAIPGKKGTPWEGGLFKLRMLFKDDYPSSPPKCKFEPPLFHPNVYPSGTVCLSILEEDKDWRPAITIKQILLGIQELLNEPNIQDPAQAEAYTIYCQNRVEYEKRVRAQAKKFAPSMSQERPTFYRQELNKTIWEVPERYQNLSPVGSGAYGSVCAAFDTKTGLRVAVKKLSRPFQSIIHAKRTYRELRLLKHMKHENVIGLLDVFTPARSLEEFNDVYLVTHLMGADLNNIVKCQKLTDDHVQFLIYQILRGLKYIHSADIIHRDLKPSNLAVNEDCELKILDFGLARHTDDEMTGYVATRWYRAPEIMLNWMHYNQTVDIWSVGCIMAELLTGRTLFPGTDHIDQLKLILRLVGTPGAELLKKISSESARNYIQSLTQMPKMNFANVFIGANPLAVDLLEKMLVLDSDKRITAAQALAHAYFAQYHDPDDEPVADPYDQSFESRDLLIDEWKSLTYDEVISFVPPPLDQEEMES

MK2-U = molecular target: T5, MK2-U (Homo sapiens, UniProt P49137+P63279); assay: Trans-SUMOylation by MK2-U; format: cell-based; settings: protein 2 construct coexpressed with MK2-U and EGFP-SUMO1 in HEK293; western blot; Table 2
T5 construct: expressed in transfected cells; host or cells: HEK293
T5 sequence (P49137+P63279 fused): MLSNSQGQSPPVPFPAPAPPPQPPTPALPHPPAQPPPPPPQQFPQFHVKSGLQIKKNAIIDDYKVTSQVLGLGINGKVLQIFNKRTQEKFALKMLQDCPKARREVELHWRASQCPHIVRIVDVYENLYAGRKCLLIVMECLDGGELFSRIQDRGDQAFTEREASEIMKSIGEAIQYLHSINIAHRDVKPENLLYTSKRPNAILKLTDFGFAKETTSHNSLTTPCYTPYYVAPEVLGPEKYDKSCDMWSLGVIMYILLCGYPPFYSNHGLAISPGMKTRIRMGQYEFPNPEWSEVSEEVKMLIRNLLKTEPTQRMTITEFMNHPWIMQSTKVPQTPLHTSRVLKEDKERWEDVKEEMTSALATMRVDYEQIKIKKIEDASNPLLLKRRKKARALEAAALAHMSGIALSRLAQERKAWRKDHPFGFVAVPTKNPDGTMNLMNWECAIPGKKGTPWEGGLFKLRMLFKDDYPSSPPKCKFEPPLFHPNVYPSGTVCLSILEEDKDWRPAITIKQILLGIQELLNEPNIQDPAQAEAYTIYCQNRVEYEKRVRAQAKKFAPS

U-MK5 = molecular target: T6, U-MK5 (Homo sapiens, UniProt P63279+Q8IW41); assay: Trans-SUMOylation by U-MK5; format: cell-based; design: key: (++), strong TransSUMOylation; (+), TransSUMOylation; (+/−) weak TransSUMOylation; (−) no detectable TransSUMOylation; settings: protein 2 construct coexpressed with U-MK5 and EGFP-SUMO1 in HEK293; western blot; Table 2
T6 construct: expressed in transfected cells; host or cells: HEK293
T6 sequence (P63279+Q8IW41 fused): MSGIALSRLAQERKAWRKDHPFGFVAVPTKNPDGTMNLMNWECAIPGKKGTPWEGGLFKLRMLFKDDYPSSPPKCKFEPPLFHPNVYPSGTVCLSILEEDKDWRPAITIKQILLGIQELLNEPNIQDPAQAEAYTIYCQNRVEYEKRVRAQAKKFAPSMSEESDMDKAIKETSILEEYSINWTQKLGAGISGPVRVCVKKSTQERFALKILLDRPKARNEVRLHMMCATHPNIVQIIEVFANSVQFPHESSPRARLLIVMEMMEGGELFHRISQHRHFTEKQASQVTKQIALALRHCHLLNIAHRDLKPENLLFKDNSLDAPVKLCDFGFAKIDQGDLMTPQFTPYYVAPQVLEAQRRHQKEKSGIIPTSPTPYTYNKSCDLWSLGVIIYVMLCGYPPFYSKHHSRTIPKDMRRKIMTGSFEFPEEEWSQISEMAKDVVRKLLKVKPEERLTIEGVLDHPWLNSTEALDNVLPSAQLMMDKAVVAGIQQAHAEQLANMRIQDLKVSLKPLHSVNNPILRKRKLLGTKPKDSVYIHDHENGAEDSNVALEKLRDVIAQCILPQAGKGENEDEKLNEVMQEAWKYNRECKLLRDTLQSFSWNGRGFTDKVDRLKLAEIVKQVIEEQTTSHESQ
Text: as §1, §2

U-MK2 = molecular target: T7, U-MK2 (Homo sapiens, UniProt P49137+P63279); assay: Trans-SUMOylation by U-MK2; format: cell-based; settings: protein 2 construct coexpressed with U-MK2 and EGFP-SUMO1 in HEK293; western blot; Table 2
T7 construct: expressed in transfected cells; host or cells: HEK293
T7 sequence (P63279+P49137 fused): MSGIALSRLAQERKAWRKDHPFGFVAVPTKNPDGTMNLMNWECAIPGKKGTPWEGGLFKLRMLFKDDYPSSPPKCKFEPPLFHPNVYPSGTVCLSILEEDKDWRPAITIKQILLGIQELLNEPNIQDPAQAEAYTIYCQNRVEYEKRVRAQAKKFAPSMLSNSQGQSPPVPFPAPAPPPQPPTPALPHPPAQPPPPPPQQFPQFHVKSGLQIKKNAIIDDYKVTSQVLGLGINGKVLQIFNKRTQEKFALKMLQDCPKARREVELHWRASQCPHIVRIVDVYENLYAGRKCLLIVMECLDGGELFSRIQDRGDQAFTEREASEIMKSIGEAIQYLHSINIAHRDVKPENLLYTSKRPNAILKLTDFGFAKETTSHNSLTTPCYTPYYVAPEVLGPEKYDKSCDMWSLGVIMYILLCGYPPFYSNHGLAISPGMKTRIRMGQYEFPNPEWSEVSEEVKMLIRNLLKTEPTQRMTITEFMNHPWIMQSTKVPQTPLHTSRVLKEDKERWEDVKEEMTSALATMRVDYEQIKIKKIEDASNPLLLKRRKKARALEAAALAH

JUN-U = molecular target: T8, JUN-U (Homo sapiens, UniProt P05412+P63279); assay: Trans-SUMOylation by JUN-U; format: cell-based; settings: protein 2 construct coexpressed with JUN-U and EGFP-SUMO1 in HEK293, western blot
T8 construct: expressed in transfected cells; host or cells: HEK293
T8 sequence (P05412+P63279 fused): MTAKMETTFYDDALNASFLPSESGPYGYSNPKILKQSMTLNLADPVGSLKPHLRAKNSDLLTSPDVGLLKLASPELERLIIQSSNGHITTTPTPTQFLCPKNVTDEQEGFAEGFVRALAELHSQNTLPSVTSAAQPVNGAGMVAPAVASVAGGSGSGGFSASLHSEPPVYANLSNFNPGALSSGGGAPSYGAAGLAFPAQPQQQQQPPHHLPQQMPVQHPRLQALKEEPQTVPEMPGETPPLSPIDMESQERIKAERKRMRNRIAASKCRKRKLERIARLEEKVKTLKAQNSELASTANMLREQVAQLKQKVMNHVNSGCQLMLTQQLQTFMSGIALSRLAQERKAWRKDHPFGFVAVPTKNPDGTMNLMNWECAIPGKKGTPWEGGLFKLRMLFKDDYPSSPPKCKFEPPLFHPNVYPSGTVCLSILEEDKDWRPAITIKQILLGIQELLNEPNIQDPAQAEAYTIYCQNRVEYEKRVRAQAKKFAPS

STAT1 = assay: Interplay of STAT1 Y701 phosphorylation and K703 SUMOylation by USDDS, western blot; format: cell-based, human; settings: HEK293, USDDS with AP21967 1 μM and interferon-β, any stimulation scenario
[1] = protein 2 construct coexpressed with p53-U and EGFP-SUMO1 in HEK293, Table 2

B1: GST-CDK4: CDK4 fused to GST tag (protein, UniProt P11802 2-303, looked up)
Cyclin-dependent kinase 4: ATSRYEPVAEIGVGAYGTVYKARDPHSGHFVALKSVRVPNGGGGGGGLPISTVREVALLRRLEAFEHPNVVRLMDVCATSRTDREIKVTLVFEHVDQDLRTYLDKAPPPGLPAETIKDLMRQFLRGLDFLHANCIVHRDLKPENILVTSGGTVKLADFGLARIYSYQMALTPVVVTLWYRAPEVLLQSTYATPVDMWSVGCIFAEMFRRKPLFCGNSEADQLGKIFDLIGLPPEDDWPRDVSLPRGAFPPRGPRPVQSVVPEMEESGAQLLLEMLTFNPHKRISAFRALQHSYLHKDEGNPE
modifications: GST tag
p53-U; [1]
  Trans-SUMOylation: −
U-CDC37
  Trans-SUMOylation: +

B2: STAT1K703R-FRB: STAT1 SUMOylation site mutant K703R fused to FRB (protein, UniProt P42224 2-750, looked up, variant K703R)
Signal transducer and …: SQWYELQQLDSKFLEQVHQLYDDSFPMEIRQYLAQWLEKQDWEHAANDVSFATIRFHDLLSQLDDQYSRFSLENNFLLQHNIRKSKRNLQDNFQEDPIQMSMIIYSCLKEERKILENAQRFNQAQSGNIQSTVMLDKQKELDSKVRNVKDKVMCIEHEIKSLEDLQDEYDFKCKTLQNREHETNGVAKSDQKQEQLLLKKMYLMLDNKRKEVVHKIIELLNVTELTQNALINDELVEWKRRQQSACIGGPPNACLDQLQNWFTIVAESLQQVRQQLKKLEELEQKYTYEHDPITKNKQVLWDRTFSLFQQLIQSSFVVERQPCMPTHPQRPLVLKTGVQFTVKLRLLVKLQELNYNLKVKVLFDKDVNERNTVKGFRKFNILGTHTKVMNMEESTNGSLAAEFRHLQLKEQKNAGTRTNEGPLIVTEELHSLSFETQLCQPGLVIDLETTSLPVVVISNVSQLPSGWASILWYNMLVAEPRNLSFFLTPPCARWAQLSEVLSWQFSSVTKRGLNVDQLNMLGEKLLGPNASPDGLIPWTRFCKENINDKNFPFWLWIESILELIKKHLLPLWNDGCIMGFISKERERALLKDQQPGTFLLRFSESSREGAITFTWVERSQNGGEPDFHAVEPYTKKELSAVTFPDIIRNYKVMAAENIPENPLKYLYPNIDKDHAFGKYYSRPKEAPEPMELDGPKGTGYIRTELISVSEVHPSRLQTTDNLLPMSPEEFDEVSRIVGSVEFDSMMNTV
modifications: fused to FRB domain
Ubc9-FKBP
  SUMOylation of mutant fusion protein: nearly no SUMOylation

B3: GST-DRG1: DRG1 fused to GST tag (protein)
chain: MSSTLAKIAEIEAEMARTQKNKATAHHLGLLKARLAKLRRELITPKGGGGGGPGEGFDVAKTGDARIGFVGFPSVGKSTLLSNLAGVYSEVAAYEFTTLTTVPGVIRYKGAKIQLLDLPGIIEGAKDGKGRGRQVIAVARTCNLILIVLDVLKPLGHKKIIENELEGFGIRLNSKPPNIGFKKKDKGGINLTATCPQSELDAETVKSILAEYKIHNADVTLRSDATADDLIDVVEGNRVYIPCIYVLNKIDQISIEELDIIYKVPHCVPISAHHRWNFDDLLEKIWDYLKLVRIYTKPKGQLPDYTSPVVLPYSRTTVEDFCMKIHKNLIKEFKYALVWGLSVKHNPQKVGKDHTLEDEDVIQIVKK
modifications: left off: a dimerising Fc or GST
notes: DRG1 fused to GST tag
p53-U; [1]
  Trans-SUMOylation: −
U-p38α
  Trans-SUMOylation: −
MK2-U
  Trans-SUMOylation: −
U-MK5
  Trans-SUMOylation: −
U-MK2
  Trans-SUMOylation: −
JUN-U; Table 2
  Trans-SUMOylation: −

B4: STAT1-FRB: human STAT1a fused to FRB (T2098L) heterodimerisation domain (protein)
chain: MSQWYELQQLDSKFLEQVHQLYDDSFPMEIRQYLAQWLEKQDWEHAANDVSFATIRFHDLLSQLDDQYSRFSLENNFLLQHNIRKSKRNLQDNFQEDPIQMSMIIYSCLKEERKILENAQRFNQAQSGNIQSTVMLDKQKELDSKVRNVKDKVMCIEHEIKSLEDLQDEYDFKCKTLQNREHETNGVAKSDQKQEQLLLKKMYLMLDNKRKEVVHKIIELLNVTELTQNALINDELVEWKRRQQSACIGGPPNACLDQLQNWFTIVAESLQQVRQQLKKLEELEQKYTYEHDPITKNKQVLWDRTFSLFQQLIQSSFVVERQPCMPTHPQRPLVLKTGVQFTVKLRLLVKLQELNYNLKVKVLFDKDVNERNTVKGFRKFNILGTHTKVMNMEESTNGSLAAEFRHLQLKEQKNAGTRTNEGPLIVTEELHSLSFETQLCQPGLVIDLETTSLPVVVISNVSQLPSGWASILWYNMLVAEPRNLSFFLTPPCARWAQLSEVLSWQFSSVTKRGLNVDQLNMLGEKLLGPNASPDGLIPWTRFCKENINDKNFPFWLWIESILELIKKHLLPLWNDGCIMGFISKERERALLKDQQPGTFLLRFSESSREGAITFTWVERSQNGGEPDFHAVEPYTKKELSAVTFPDIIRNYKVMAAENIPENPLKYLYPNIDKDHAFGKYYSRPKEAPEPMELDGPKGTGYIKTELISVSEVHPSRLQTTDNLLPMSPEEFDEVSRIVGSVEFILWHEMWHEGLEEASRLYFGERNVKGMFEVLEPLHAMMERGPQTLKETSFNQAYGRDLMEAQEWCRKYMKSGNVKDLLQAWDLYYHVFRRISK
STAT1
  double modification of STAT1 by SUMOylation and Y701 phosphorylation: no double modification

B5: HA-JNK1: JNK1 fused to HA tag (protein)
chain: MSRSKRDNNFYSVEIGDSTFTVLKRYQNLKPIGSGAQGIVCAAYDAILERNVAIKKLSRPFQNQTHAKRAYRELVLMKCVNHKNIIGLLNVFTPQKSLEEFQDVYIVMELMDANLCQVIQMELDHERMSYLLYQMLCGIKHLHSAGIIHRDLKPSNIVVKSDCTLKILDFGLARTAGTSFMMTPYVVTRYYRAPEVILGMGYKENVDLWSVGCIMGEMVCHKILFPGRDYIDQWNKVIEQLGTPCPEFMKKLQPTVRTYVENRPKYAGYSFEKLFPDVLFPADSEHNKLKASQARDLLSKMLVIDASKRISVDEALQHPYINVWYDPSEAEAPPPKIPDKQLDEREHTIEEWKELIYKEVMDLEERTKNGVIRGQPSPLAQVQQ
modifications: left off: small tags and cut ends
notes: JNK1 fused to HA tag
p53-U; protein 2 construct coexpressed with P53-U (p53-U) and EGFP-SUMO1 in HEK293, Table 1
  Trans-SUMOylation: −
JUN-U; Table 1
  Trans-SUMOylation: −
